Source: publication PMC5431903, “Genomic RNA folding mediates assembly of human parechovirus” (Nature Communications, 2017)

Biological target: the molecule itself
Experiment: not stated; purified HPeV1 virions heated to 56 °C for 30 min, then 4 °C for 10 days (1x selection buffer: 10 mM Tris-HCl pH 7.7, 150 mM NaCl, 1 mM MgCl2); whole capsids removed by centrifugation; how the pentamers were shown is in Supplementary Fig. 1

B1: HPeV1 (Harris strain) capsid protein protomer of VP0, VP1 and VP3 (complex)
chain 1: METIKSIADMATGVVSSVDSTINAVNEKVESVGNEIGGNLLTKVADDASNILGPNCFATTAEPENKNVVQATTTVNTTNLTQHPSAPTMPFSPDFSNVDNFHSMAYDITTGDKNPSKLVRLETHEWTPSWARGYQITHVELPKVFWDHQDKPAYGQSRYFAAVRCGFHFQVQVNVNQGTAGSALVVYEPKPVVTYDSKLEFGAFTNLPHVLMNLAETTQADLCIPYVADTNYVKTDSSDLGQLKVYVWTPLSIPTGSANQVDVTILGSLLQLDFQNPRVFAQDVNIYDN
chain 2: NSWGSQMDLTDPLCIEDDTENCKQTMSPNELGLTSAQDDGPLGQEKPNYFLNFRSMNVDIFTVSHTKVDNLFGRAWFFMEHTFTNEGQWRVPLEFPKQGHGSLSLLFAYFTGELNIHVLFLSERGFLRVAHTYDTSNDRVNFLSSNGVITVPAGEQMTLSAPYYSNKPLRTVRDNNSLGYLMCKPFLTGTSTGKIEVYLSLRCPNFFFPLPAPKVTSSRALRGDMANLTNQ
chain 3: APNGKKKNWKKIMTMSTKYKWTRTKIDIAEGPGSMNMANVLCTTGAQSVALVGERAFYDPRTAGSKSRFDDLVKIAQLFSVMADSTTPSENHGVDAKGYFKWSATTAPQSIVHRNIVYLRLFPNLNVFVNSYSYFRGSLVLRLSVYASTFNRGRLRMGFFPNATTDSTSTLDNAIYTICDIGSDNSFEITIPYSFSTWMRKTNGHPIGLFQIEVLNRLTYNSSSPSEVYCIVQGKMGQDARFFCPTGSVVTFQ
notes: capsid protein VP0 of human parechovirus 1, Harris strain; cut product of the viral polyprotein, not cleaved into VP2 and VP4; capsid protein VP1 of human parechovirus 1, Harris strain; cut product of the viral polyprotein; capsid protein VP3 of human parechovirus 1, Harris strain; One protomer holds one copy each of VP0, VP1 and VP3; five protomers form the pentameric capsomer, and the capsid is …
- stoichiometry N: 5
